Laboratory results as given in US20110262477A1 (priority 2008, published 2011).

System: Nc1ncnc2c1ncn2[C@@H]1O[C@H](COP(=O)(O)O)[C@@H](O)[C@H]1O
Assay: purified protein, by the assay type
Conditions: pH 7.5; 37.0 °C

## Bacillus anthracis BasA (AdsA homolog, NCBI locus tag BAS4031), tagged, affinity purified from E. coli, SEQ ID NO:41 (Bacillus anthracis)
  Km: 2.01 nM
